Assay results published in the DeepSol protein solubility set.

Experiment: soluble on expression in E. coli; label from the status in PepcDB or PDB records

Row | Sequence | soluble on expression in E. coli
1 | FEEHLKKKPLRERLLEIPELRTEGLRDCQVMAISNLEKSFKDYRPRALIQMATGSGKTYTAITFIYRLLKFADARKVLFLVDTKNLGEQAEQEFMAYVPNDDNRKFTELYNVQRLRSSYISSDSQVCISTIQRLYSILKGEDLDEKTEEENPAERGWQLKEPLPVVYNEKVPIEEFDFIVIDECHRSIY | not soluble
2 | WLRDVLDSEAFRHTQATLPMALGKDISGQPIVVDMAKMPHLLVAGQTGGGKSVGINTMILSLLFKLTPEQVRFIMIDPKVVELSVYNDIPHLLTPVVTDMKKAANALRWAVGEMERRYLLISHLQVRNIEGYNDKIDQASAMNFPIPDPTWRPADSIGQLPPPLTKLSYIVLIVDEFADLIMSAGKEVEEYIMRIAQKARAVGIHLILATQRPST | not soluble
3 | MSLGTLWWNGTFFTMVHEGDQVEAVFTEDGKIVAIGTAEELRQRYSTRINQEMNCDGAYVYPGFVDSHLHMIGHGEKLLRLDLSTVMNAEDMREKLMERVALTEEGDWVTAEGWNENNFPDQKIFHRNELDEIAPNHPMILTRVCRHAILVNSKALQLAGISKDTTDPPGGRIVRDELGEPTGYLLDTAQELVKRVAPSVSAAYLERALAAAVDDMVAKGLVGGHTEDLGYYLGFNQTFATFQRVIDGNTRRFRAHLLVHHEVIDDMIKAGYCKGPVGEWLEFGAMKIFADGAFGGRTALLSEPYCDAPTTSGVAIHTQEQLTNLIKKARQYKLPVAIHTIGDEALRMAITSIEAHPVTEGRDRLIHTQVTPPSLVERMKKLKVILDIQPAFVPADFPWVEERLGNERLSYSFAWKTLLRSGMALAGGSDAPIEEVDPLYGIYAAVARKKPTDQHEGYLPEEKLTRYEALQLYTTGSAYAIEREHERGNIRPGYVADFTMLNRNLFTCREEELLTTRVEKTVIGEAIVFQAKGIITITTDPNSSSVDKLAAALEHHHHHH | soluble
4 | MGSDKIHHHHHHMNALQFQKKLLSMQENMMNFALMLTANRDDAQDLMQDTTLKVLDNQEKFVDNINFKGWVLTVMRNIFINNYHKIVRTQTVVDQGVDLYNLDVVNDSGFDSPDGAYQIQEITKAINGLNNELKVPFSMFLSGYKYNEIADKLDVPLGTVKSRIFFARQELQKVLKDFRQG | not soluble
5 | MLMPRRMKYRKQQRGRLKGATKGGDYVAFGDYGLVALEPAWITAQQIEAARVAMVRHFRRGGKIFIRIFPDKPYTKKPLEVRMGKGKGNVEGYVAVVKPGRVMFEVAGVTEEQAMEALRIAGHKLPIKTKIVRRDAYDEAQ | soluble
6 | SLTRLEALKNIPRPAEECVEKTLNGEVPVDLFIARGHPNVRASNKRTLEVTKDVYLTRRGDCIIACCAEKAAGELSATVLEALMRSGLVVLIIDAGVVWDYVIGITPRSKPASKWRLVARKSNYVDDSTIAILADKAAYDLDRTLIRELKRGVPVRIIVGVCPGDSI | not soluble
7 | MALSGIYKLDDGKPYLNNCFPARNLLRVPEEGQGHWLVVQKGNLKKKPKGLVGAQAERRESLKATSFEFKGKKESRRENQVDLPGHILDQAFLLKHHCVRKPSDLCTINAKENDFKHFHSVIYINASENLLPLEAFHTFPALKELDLAFNGIKTIYVKYGDFKLLEFLDLSFNSLTVEAICDLGILPHLRVLLLTGNGLTSLPPNLAVAEQEASVTSLTSKRYILRFPALETLMLDDNRLSNPSCFASLAGLRRLKKLSLDENRIIRIPYLQQVQLYDESVDWNGGRGSPHKEPQFMLQSKPRMLEDSDEQLDYTVLPMKKDVDRTGVPPLLKSFLQERLGIHLIRRKIVKPKHHVLMSRKESWKVKSEIPKVPKQPLVLHHPRMRTTKSPSKDMLEPEAELAEDLPTTKSTSVESEMPTENLEGHSPSCRTFVPLPPICSNSTVHSEETLSHLSDTTVRLSPERPSDEDSKSTESIFLTQVSELPSSVIHKDDLELKEKDQKKPPTAPREVKGTRRKLPTAFLPSKYHGYEELLTAKPDPAFIEPKGIQKNAQALQQMLKHPLLCHSSKPKLDTLQKPYVHKEKRVLSCTSGQNGGW | not soluble
8 | MTPDWFAVVDATWPAADSRTDGTLTLREGRGGGKRVSAASASGAVSEPQIEAAEAAMRQMGQPPLFQLRPGDEGLDAALAGRGYSIVDPVNIYACPVSQLTDLPMPRVTVFALWEPLAIMRELWAEGGIGPGRLAVMDRVKGPKTGLLMRHQDKPGGVAFVAIHDGVAMLHALEIPPHQRRKGLGKWAMRGAAFWALDNGAHTLSVICTKANEGANALYRSLGMQLVGEYHYRLLQEERQTA | not soluble
9 | MALVRFSPLYEFDRELGTLQRQMSRFLQPWPWTEAELKELSFAPAVEVKETDAAIELRVELPGIDPKDLDLQVTAEAVVLKGERRSEDRSEAEGVLRTEFRYGAFERVIPLPAQVKNTEAQADYQNGILVLTLPKRDEELHKVVKVDLGHLAAAPVAAEACERLEHHHHHH | soluble
10 | MDRPLLIFSGQSNRPLAQAIAEALGLPLGKSTTLRFANDNLFVRYEESLREGDVFIVQSFVPPVQDHLMELLMMVDAAKGASAARVTAVIPYFSYARSDKKDAPRISITARLIADLLQTAGADRVLTMTLHSPQVHGFFKIPVDHLSAEPVIANYFATRVDLENAVVVAPDAGDLKRASALARRLGLPLAFIDKERVSDTEVRVRMLVGEVEGKTALIVDDEISTAGSLVEAVEALMQAGAKEVYAAATHGVYVGPALDRIAKSPVKEVAATDTCPPKEGPKLRTLTVAPLFAEAIWRIHRGESVSSLFT | soluble
11 | MLKRLISIPTVAPQGDHYGEAAELLARELESLGFETVVERVPSEYQREKCRHASDNPRFIVYGRRGEGPALHFNGHYDVVPGGPGWSVTEPFKPVVKDGKLYGRGAIDMKGGIAAALGAFKALHLSGAWPQGLRVEAAFVPDEEIGGECGTGYLVNGMGVTPEYVVLPEPSGLEKPWHGHRGILWMKVRVKGRTAHASTPWHGRNAFLLASAIALDLQQALASMYAGRRSRHRIEPEESAKPTVSLGGEAGVTGGGKTNQVPGEFYFTVDRRLIPEETVSQARDELLGVLTWLSVKHGAEVEAEEVISAEPAINEPGELYEALREAASQSGRSIGEPVVCPGGLDMWYYTVKGSKALAYGPRGELAHAPDEHIDLGELRFLVETFARLPITLAVALQRRT | soluble
12 | MQMCFSKSAQHHSKVKQRNSLLEIMENCFEMMVARCIKIGTVQTLTMLGLLPEVVTISQAEDIYGKRLITEWREKAWIKFYPANNKERGKYYVKRSELETASAMMDLHNKVPDNIIKQLMQLTV | not soluble
13 | MNMIDQLNITDFQVFTDENSDKFVSKIYKFSSKMILSDFHAQPQGFLNGGASLALAEITAGMASNAIGSGQYFAFGQSINANHLNPKKCEGFVNARGLLLKNGKRNHVWEIKITDENETLISQITVVNALVPQKNSDKLEHHHHHH | soluble
14 | MGSDKIHHHHHHMSELTLLADADERGRRYLAGNAQRRVFPDADALSALARFNEALPQQGFSPEDTLTLLDEVGSPATTASNGPNYFGFVIGAALPIAAASERLMIAWDQCASTFDNSPVSATLERLASRWVLDILKLPKESAVGFGTSATACTLSCLVAARRAMLAKQGWDFDNDGLIGAPEIKVVISALTHITVKKALRVLGFGLRHIIVAPVNAFGQIDVTQLPPLDDRTILCLQAGEVNTGEFDDFAQIIPIAKAAGAWVHVDGAFGLWARASSHAALTESIELADSWTTDAHKWLNTPYDCAMAICRNADALAEAMNADAVYSSAARDAQKNLTLEFSRRPRGIPVWAVLRTLGRDGVAEMIERHCRQATLIADGLRHAGFEVLNRVVLNQVLLRGETDSQTTAIREALQASGKAWFGGTVWQGRPALRISVSSWRTQDDNVQALIALLTEIKAKTPR | not soluble
15 | MSLSSPTADVEKLRRIIEVARGDRRADFVVKNAQIVDLVNEEIFEGDIAVAEGFIAGIGSYSGVEECEASNLVAVPGLIDAHTHIEMSMLTVSEFARLVVPRGTTGVVADPHEIANVLGKDGVMLMLEEARSTPLRFYCMVPSCVPSSPLETSGARIGVEEIRELLEEEEVLGLAEMMNFPGVVSADREVLEKIVLAGIVDGHAPGLRGKKLNAYIAAGASSDHETTSFEEGKEKLRLGMWVMIREGSAARNLVALKGLTGNRHTMLVTDGDRSVKDIIEEGYLDHVFRRAIEEGIDEIKALQMLTLNPAEYFGINAGLIAPSRLADIVLLKNLRKFEVRDVFVGGRRPEFKRFNHPEWAKKTVKARKITPESIQLKTGRVRVIEVYDGEIVTGEAIEEVQGVDVERDILKAVVVERHIRSGRVGKAYVRGFGLKRGAIAQSIAHDAHNIVCVGVDDGSICAAVNRVIELQGGIVVADAEVRAELPLPIAGIMSDERAERVLERLSEIEEEVRKLGCRLKSPVITLSFIALPVIPKLKLTDLGLVDVEAFRVVDLQADEGHHHHHH | not soluble
